Source: patent US20250136662A1, “CD95 POLYPEPTIDES” (Deutsches Krebsforschungszentrum Stiftung des öffentlichen …, priority 2021, published 2025)

B1: double mutant: CD95 variant with R192E/K193E exchanges (cf. SEQ ID NO:31), expressed from lentiviral or AAV vector (protein)
chain: MLGIWTLLPLVLTSVARLSSKSVNAQVTDINSKGLELRKTVTTVETQNLEGLHHDGQFCHKPCPPGERKARDCTVNGDEPDCVPCQEGKEYTDKAHFSSKCRRCRLCDEGHGLEVEINCTRTQNTKCRCKPNFFCNSTVCEHCDPCTKCEHGIIKECTLTSNTKCKEEGSQSNLGWLCLLLLPIPLIVWVKEEEVQKTCRKHRKENQGSHESPTLNPETVAINLSDVDLSKYITTIAGVMTLSQVKGFVRKNGVNEAKIDEIKNDNVQDTAEQVQLLRNWHQLHGKKEAYDTLIKDLKKANLCTLAEKIQTIILKDITSDSENSNFRNEIQSLV
modifications: R192E/K193E double mutein (dM)
B2: triple mutant: CD95 variant with R171E/R192E/K193E exchanges (cf. SEQ ID NO:32), expressed from lentiviral or AAV vector (protein)
chain: MLGIWTLLPLVLTSVARLSSKSVNAQVTDINSKGLELRKTVTTVETQNLEGLHHDGQFCHKPCPPGERKARDCTVNGDEPDCVPCQEGKEYTDKAHFSSKCRRCRLCDEGHGLEVEINCTRTQNTKCRCKPNFFCNSTVCEHCDPCTKCEHGIIKECTLTSNTKCKEEGSESNLGWLCLLLLPIPLIVWVKEEEVQKTCRKHRKENQGSHESPTLNPETVAINLSDVDLSKYITTIAGVMTLSQVKGFVRKNGVNEAKIDEIKNDNVQDTAEQVQLLRNWHQLHGKKEAYDTLIKDLKKANLCTLAEKIQTIILKDITSDSENSNFRNEIQSLV
modifications: R171E/R192E/K193E triple mutein (tM)
B3: single mutant: CD95 variant with R171E exchange (cf. SEQ ID NO:30), expressed from lentiviral or AAV vector (protein)
chain: MLGIWTLLPLVLTSVARLSSKSVNAQVTDINSKGLELRKTVTTVETQNLEGLHHDGQFCHKPCPPGERKARDCTVNGDEPDCVPCQEGKEYTDKAHFSSKCRRCRLCDEGHGLEVEINCTRTQNTKCRCKPNFFCNSTVCEHCDPCTKCEHGIIKECTLTSNTKCKEEGSESNLGWLCLLLLPIPLIVWVKRKEVQKTCRKHRKENQGSHESPTLNPETVAINLSDVDLSKYITTIAGVMTLSQVKGFVRKNGVNEAKIDEIKNDNVQDTAEQVQLLRNWHQLHGKKEAYDTLIKDLKKANLCTLAEKIQTIILKDITSDSENSNFRNEIQSLV
modifications: R171E single mutein (sM)

Tests used:
Type in all cases: cell-based
[1] = tested on: cell cycle; assay: Cell cycle assessment of cells overexpressing CD95 variants; conditions: overexpressed using lentiviral vectors two weeks prior to cell cycle assessment
From the text: FIG. 6: Effect of CD95 variants on cell cycle. Shown is the percentage of cells in G2, S, or G1 phase, respectively, in cell overexpressing effector polypeptides. […] Abbreviations as in FIG. 5.
Indicated variants were overexpressed using lentiviral vectors two weeks prior to cell cycle assessment.

[2] = tested on: membrane lipid composition of cells; assay: Lipidomics profiling of cells overexpressing CD95 variants (membrane lipid composition, UMAP clustering); conditions: overexpressed using lentiviral vectors two weeks prior to lipidomics profiling
From the text: (§1) FIG. 5: Changes of lipid composition of membranes of cells in the presence of CD95 variants. A) Shown are average mol % concentrations of the indicated lipid classes; Abbreviations: WT: wildtype CD95; KO: CD95-knockout; sM: single mutant (R171E), dM: double mutant (R192E/K193E); tM: triple mutant (R171E/R192E/K193E); PC: phosphatidylcholines; PE: phosphatidylethanolamines, PS: phosphatidylserines, PI: phosphatidylinositoles, SM: sphingomyelins, CE: cholesteryl esters. “a”X relates to acyl-X, e.g. aPC is Acyl-phosphatidylcholines; “e”X relates to Ether-X or X containing one odd-chain fatty acyl species. B) Clustering of cells based on lipid profile changes, UMAP representation. C) average cell size as cell area of cells expressing variants of CD95.
(§2) Indicated variants were overexpressed using lentiviral vectors two weeks prior to lipidomics profiling. […] Also, average cell size was decreased in cells expressing the triple mutant CD95, very similar to CD95 KO cells.

[3] = tested on: cell size; assay: Average cell size as cell area of cells expressing CD95 variants; conditions: lentiviral overexpression, very similar to CD95 KO cells
From the text: as §1, §2

[4] = tested on: transferrin uptake; assay: Transferrin uptake assay (endocytotic activity), flow cytometry; conditions: lentiviral overexpression two weeks prior, uptake after 10, 20 and 30 min
Description: FIG. 8: Effect of CD95 variants on endocytotic activity of cells. Shown is the relative transferrin uptake of treated cells over time, i.e. after 10, 20, and 30 min. Abbreviations as in FIG. 5.
Indicated variants were overexpressed using lentiviral vectors two weeks prior to assessment of the endocytotic activity by a transferrin uptake assay. Transferrin uptake was assessed after the indicated time points via flow cytometry.

[5] = tested on: EGFR activation; assay: Western blot pEGFR relative to total EGFR in T98G cells (Example 11); conditions: T98G cells serum starved, untreated or 100 ng/ml EGF-L for 10 mins
Description: (§3) FIG. 10: Impact of CD95 mutants on activation of Akt and EGFR. […] Abbreviations as in FIG. 5.
(§4) T98G cells were serum starved, control (Co) cells were left untreated otherwise stimulated with 100 ng/ml of EGF-L for 10 mins. Protein samples were analysed by western blot for pAKT (ser 473), pEGFR and pERK and the total amount of protein (pan antibody). Relative expression of the protein was calculated where phospho-proteins were normalized to their total proteins. […] TMD is CD95 with the indicated mutation(s). Protein lysates were also analysed for the level of cleaved and total caspase (FIG. 11).

[6] = tested on: Caspase 8 cleavage; assay: Caspase-8 cleavage in protein lysates of T98G cells (apoptosis); conditions: upon EGFR stimulation
Description: FIG. 11: Impact of CD95 mutants on apoptosis (caspase-8 cleavage). Protein lysates were analysed for the level of cleaved and total caspase-8. […] Bar show, in each case from left to right, relative expression of total caspase, p44, p43, and p18.
as §4

[7] = tested on: AKT activation; assay: Western blot pAKT (ser 473) relative to total Akt in T98G cells (Example 11); conditions: T98G cells serum starved, untreated or 100 ng/ml EGF-L for 10 mins
Description: as §3, §4

[8] = tested on: Akt phosphorylation (Ser 473); assay: Western blot, fraction of phosphorylated Akt in cells overexpressing CD95 variants (Example 8); conditions: lentiviral overexpression two weeks prior, untreated or 20 ng/ml CD95-ligand or 100 ng/ml EGF-L for 10 minutes
Description: (§5) FIG. 7: Effect of CD95 variants on cell signaling; shown is relative content in pAkt and pEGFR in cells transfected to overexpress effector polypeptides as indicated. Abbreviations as in FIG. 5.
(§6) Indicated variants were overexpressed using lentiviral vectors two weeks prior to treatment. Cells were left untreated (co) or exposed to 20 ng/ml of CD95-ligand or 100 ng/ml of EGF-L for 10 minutes and the fraction phosphorylation among total Akt and EGFR measured by Western Blot.

[9] = tested on: EGFR phosphorylation; assay: Western blot, fraction of phosphorylated EGFR in cells overexpressing CD95 variants (Example 8); conditions: lentiviral overexpression two weeks prior, untreated or 20 ng/ml CD95-ligand or 100 ng/ml EGF-L for 10 minutes
Description: as §5, §6

Molecule | effect on cell cycle (cells in G2, S or G1 phase) [1] | effect on cell cycle (cells in G2, S or G1 phase) ([1]; listed as double mutation variant) | changes in membrane lipid composition [2] | clustering of cells based on lipid profile changes (UMAP) [2] | average cell size [3] | transferrin uptake [4] | EGFR activation (pEGFR normalized to total) [5] | effect on cell cycle (cells in G2, S or G1 phase) ([1]; listed as triple mutation variant) | Caspase 8 cleavage [6] | level of AKT activation (pAKT ser 473 normalized to total) [7] | Akt phosphorylation (Ser 473), fraction among total Akt [8] | EGFR phosphorylation, fraction among total EGFR [9]
B1 | G1 arrest | strong G1 arrest | distinct changes in membrane lipid composition | clustered similarly |  |  |  |  |  |  |  | 
B2 | G1 arrest |  | distinct changes in membrane lipid composition | very similar clustering to the KO cells | decreased | significantly reduced transferrin uptake | increase in the EGFR activation | strong G1 arrest | noticeable Caspase 8 cleavage | decrease in the level of AKT activation | reduced Akt phosphorylation | increased EGFR phosphorylation
B3 |  |  |  | clustered similarly |  | significantly reduced transferrin uptake |  |  |  |  |  | 
